Assays:
[1] = molecular target: native RPE1 extracted from Chlamydomonas reinhardtii cell cultures (Chlamydomonas reinhardtii (endogenous in strain D66)); experiment: SEC
[2] = molecular target: recombinant ribulose-5-phosphate-3-epimerase isoform 1 from Chlamydomonas reinhardtii (CrRPE1) (Chlamydomonas reinhardtii); experiment: SEC-SAXS
[3] = molecular target: recombinant ribulose-5-phosphate-3-epimerase isoform 1 from Chlamydomonas reinhardtii (CrRPE1) (Chlamydomonas reinhardtii); experiment: SEC
[4] = molecular target: recombinant ribulose-5-phosphate-3-epimerase isoform 1 from Chlamydomonas reinhardtii (CrRPE1) (Chlamydomonas reinhardtii); experiment: crystal structure

Question: How did the stoichiometry N [1] turn out when “native RPE1 extracted from Chlamydomonas reinhardtii cell cultures (enzyme)” was run?
Answer: 6 subunits

Question: Which stoichiometry N (subunits per particle) [2] does the source give for “recombinant ribulose-5-phosphate-3-epimerase isoform 1 from Chlamydomonas reinhardtii (CrRPE1) (enzyme)” here?
Answer: 6

Question: What about the stoichiometry N [3] of the same substance?
Answer: 5 subunits

Question: And the stoichiometry N [4]?
Answer: 6 subunits

Reference: article doi:10.1101/2022.09.29.510120
